Source: article doi:10.1101/2024.09.16.613340

Molecular target: KSS-1::Strep (C. tropicalis)
Test: SEC-MALS

SKR-1 (untagged) (natural protein)
stoichiometry N: 1
